B1: Achaete-scute complex protein T4 (Drosophila melanogaster (Fruit fly)), P10084 (parent)
chain: MKNNNNTTKSTTMSSSVLSTNETFPTTINSATKIFRYQHIMPAPSPLIPGGNQNQPAGTMPIKTRKYTPRGMALTRCSESVSSLSPGSSPAPYNVDQSQSVQRRNARERNRVKQVNNSFARLRQHIPQSIITDLTKGGGRGPHKKISKVDTLRIAVEYIRRLQDLVDDLNGGSNIGANNAVTQLQLCLDESSSHSSSSSTCSSSGHNTYYQNTISVSPLQQQQQLQRQQFNHQPLTALSLNTNLVGTSVPGGDAGCVSTSKNQQTCHSPTSSFNSSMSFDSGTYEGVPQQISTHLDRLDHLDNELHTHSQLQLKFEPYEHFQLDEEDCTPDDEEILDYISLWQEQ
partner: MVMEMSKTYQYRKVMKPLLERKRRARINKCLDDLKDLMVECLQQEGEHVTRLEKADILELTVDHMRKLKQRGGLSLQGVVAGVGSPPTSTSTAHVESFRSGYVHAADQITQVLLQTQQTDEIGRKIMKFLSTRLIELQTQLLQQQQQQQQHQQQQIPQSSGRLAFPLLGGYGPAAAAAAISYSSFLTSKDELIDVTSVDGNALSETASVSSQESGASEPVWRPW
B2: Achaete-scute complex protein T4 (Drosophila melanogaster (Fruit fly)), P10084 (parent)
chain: B1 chain
partner: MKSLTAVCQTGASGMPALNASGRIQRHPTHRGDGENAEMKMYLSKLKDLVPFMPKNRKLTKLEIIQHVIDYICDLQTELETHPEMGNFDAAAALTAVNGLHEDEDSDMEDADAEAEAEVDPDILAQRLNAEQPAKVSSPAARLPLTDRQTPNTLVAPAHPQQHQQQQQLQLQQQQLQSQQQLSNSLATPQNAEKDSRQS

Variants of: B1
Conditions: with esm3_drome E(spl)m3-HLH
S340D was tested, and the “effect of a mutation on the interaction” value was “increasing interaction”.

Variants of: B2
Conditions: with emc_drome emc
With S340D the “effect of a mutation on the interaction” value was “decreasing interaction”.
